From article PMC6962051, “Auxiliary-assisted chemical ubiquitylation of NEMO and linear extension by HOIP” (Communications chemistry, 2019)

Key:
[1] = molecular target: the molecule itself; test: circular dichroism thermal melting at different concentrations; PBS pH 7.4; ellipticity at 222 nm, 2-80 °C, 2 °C/min; melting temperature rises with the concentration of NEMO_(CoZi) (20.2, 24.9, 28.5 °C); monomer to coiled-coil dimer
linear di-Ubiquitin = molecular target: T1, linear di-Ubiquitin (UniProt P0CG47 1-76; P0CG47 1-76); test: BLI; biotinylated NEMO_(CoZi) or NEMO_(CoZi)-Ub immobilised on streptavidin biosensors (~2 ug/mL); di-Ub at 2-225 uM; 25 °C; 100 s association, 100 s dissociation; 10 mM HEPES pH 7.4, 150 mM NaCl, 3 mM EDTA, 0.005% Tween-20; equilibrium analysis of response against di-Ub concentration; details: both partners purified
T1 construct: ubiquitin (1-76), distal unit of the linear (M1-linked) dimer; ubiquitin (1-76), proximal unit, its Met1 joined by a peptide bond to Gly76 of the first unit; also called linear diubiquitin chains

Kd (linear di-Ubiquitin): 25 µM
B1: synthetic biotinylated mouse NEMO CoZi domain (NEMO_(CoZi)), 83-mer (domain or fragment)
chain: EDLRQQLQQAEEALVAKQELIDKLKEEAEQHKIVMETVPVLKAQADIYKADFQAERHAREKLVEKKEYLQEQLEQLQREFNKL
modifications: biotin on the N-terminus; C-terminal amide
notes: CoZi (coiled-coil and leucine zipper) domain of mouse NEMO, 83-mer; The unmodified peptide is the same 83-mer after Alloc removal, without the auxiliary; also called unmodified NEMO_(CoZi); source: synthetic peptide (solid-phase synthesis in a single piece, HPLC purified); not shown: biotin, N-terminal, kept
binding result [1]: binds
